This experiment has as its target tubulin purified on a phosphocellulose column (mouse). The experiment can be described thus: cell-based or functional assay.

tubulin purified on a phosphocellulose column (mouse), sequence (P68369 whole entry, chain 1 of 2): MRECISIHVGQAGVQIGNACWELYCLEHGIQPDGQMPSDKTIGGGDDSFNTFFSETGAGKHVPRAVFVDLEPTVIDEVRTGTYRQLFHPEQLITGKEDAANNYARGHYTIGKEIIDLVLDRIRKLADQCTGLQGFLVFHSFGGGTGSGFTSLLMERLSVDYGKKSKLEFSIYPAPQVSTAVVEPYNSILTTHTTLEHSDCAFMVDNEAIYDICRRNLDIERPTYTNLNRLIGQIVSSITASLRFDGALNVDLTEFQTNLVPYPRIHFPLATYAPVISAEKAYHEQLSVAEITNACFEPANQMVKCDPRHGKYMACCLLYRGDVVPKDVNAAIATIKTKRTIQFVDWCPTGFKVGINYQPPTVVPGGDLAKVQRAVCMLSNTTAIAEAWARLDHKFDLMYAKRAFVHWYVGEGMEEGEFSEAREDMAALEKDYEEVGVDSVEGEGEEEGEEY
tubulin purified on a phosphocellulose column (mouse), sequence (Q9ERD7 whole entry, chain 2 of 2, further chain): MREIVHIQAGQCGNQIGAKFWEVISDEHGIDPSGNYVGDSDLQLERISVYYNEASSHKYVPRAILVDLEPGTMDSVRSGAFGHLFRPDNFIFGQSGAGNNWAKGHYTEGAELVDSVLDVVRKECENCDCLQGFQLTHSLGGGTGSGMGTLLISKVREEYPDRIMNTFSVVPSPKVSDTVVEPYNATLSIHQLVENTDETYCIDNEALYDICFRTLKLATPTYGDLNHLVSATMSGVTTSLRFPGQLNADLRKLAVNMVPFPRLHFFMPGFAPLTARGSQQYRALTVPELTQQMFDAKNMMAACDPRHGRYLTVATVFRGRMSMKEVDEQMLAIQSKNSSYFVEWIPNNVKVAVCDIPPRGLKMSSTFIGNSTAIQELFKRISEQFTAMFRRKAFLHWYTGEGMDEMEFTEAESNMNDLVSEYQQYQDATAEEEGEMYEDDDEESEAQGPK

On to “Neurofilament Medium subunit-Tubulin Binding Site (NFM-TBS) (peptide)”, for which the inhibition of tubulin polymerization (% inhibition at 100 µM) amounted to 30.

Substance “Neurofilament Light subunit-Tubulin Binding Site 1 (NFL-TBS1) (peptide)” came in with an inhibition of tubulin polymerization (% inhibition at 100 µM) of 30.

Consider “Neurofilament high subunit-Tubulin Binding Site (NFH-TBS) (peptide)”, for which the inhibition of tubulin polymerization (% inhibition at 100 µM) came out at 30.

As to “Neurofilament Light subunit-Tubulin Binding Site 2 (NFL-TBS2) (peptide)”, the T98G cells in phase G1 after 48 hours with 10 µM peptide (FACS; 39% in untreated cultures) (% of cells in G1) was found to be 61 and the inhibition of tubulin polymerization (% inhibition at 100 µM) came out at 100.
